From US7666420

Experiments:
[1] = target: human TLR4 (Toll-like receptor 4) (human) (UniProt O00206); assay: cell-based or functional assay
[2] = target: CD14 (human) (UniProt P08571); assay: cell-based or functional assay
UniProt P08571, sequence (P08571 20-345): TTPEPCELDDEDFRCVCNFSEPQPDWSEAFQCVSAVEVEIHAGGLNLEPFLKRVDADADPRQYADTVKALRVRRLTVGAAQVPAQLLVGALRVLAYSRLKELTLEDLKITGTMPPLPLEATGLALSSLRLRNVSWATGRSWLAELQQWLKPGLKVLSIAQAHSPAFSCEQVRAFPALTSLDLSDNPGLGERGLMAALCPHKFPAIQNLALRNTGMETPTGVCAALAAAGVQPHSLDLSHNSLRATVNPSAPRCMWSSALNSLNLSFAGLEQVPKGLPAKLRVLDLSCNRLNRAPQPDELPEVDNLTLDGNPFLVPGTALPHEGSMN

UniProt O00206, sequence (O00206 24-839): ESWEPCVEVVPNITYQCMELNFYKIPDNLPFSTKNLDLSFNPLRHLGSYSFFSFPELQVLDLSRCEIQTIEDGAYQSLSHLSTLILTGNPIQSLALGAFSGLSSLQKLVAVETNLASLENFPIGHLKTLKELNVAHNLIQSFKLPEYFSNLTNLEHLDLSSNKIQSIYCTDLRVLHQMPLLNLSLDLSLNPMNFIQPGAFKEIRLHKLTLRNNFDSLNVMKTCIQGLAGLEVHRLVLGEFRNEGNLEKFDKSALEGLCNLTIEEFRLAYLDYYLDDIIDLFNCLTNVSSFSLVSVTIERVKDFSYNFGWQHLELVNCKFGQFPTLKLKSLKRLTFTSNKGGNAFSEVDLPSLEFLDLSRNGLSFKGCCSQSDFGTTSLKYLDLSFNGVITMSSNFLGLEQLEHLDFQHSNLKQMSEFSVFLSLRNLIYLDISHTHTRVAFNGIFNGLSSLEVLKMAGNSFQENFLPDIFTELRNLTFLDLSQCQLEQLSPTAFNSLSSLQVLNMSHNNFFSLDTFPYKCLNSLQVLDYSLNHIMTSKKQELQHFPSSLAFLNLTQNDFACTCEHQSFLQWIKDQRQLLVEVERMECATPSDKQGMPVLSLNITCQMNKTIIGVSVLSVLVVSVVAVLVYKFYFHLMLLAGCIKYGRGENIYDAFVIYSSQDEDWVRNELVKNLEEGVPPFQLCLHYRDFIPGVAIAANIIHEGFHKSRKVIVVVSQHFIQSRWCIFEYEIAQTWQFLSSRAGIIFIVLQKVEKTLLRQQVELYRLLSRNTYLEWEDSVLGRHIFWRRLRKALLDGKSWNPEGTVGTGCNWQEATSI

| Substance | inhibition of TNF-alpha secretion by human PBMCs stimulated with Env-SU, cells preincubated with anti-TLR4 antibody [1] | inhibition of TNF-alpha secretion by human PBMCs stimulated with Env-SU, cells preincubated with anti-CD14 antibody [2] |
| --- | --- | --- |
| anti-human TLR4 monoclonal antibody HTA125 (eBioscience) | 37% |  |
| anti-CD14 neutralizing antibody (rhCD14, ref.: AB383, R&D Systems-UK) |  | 83% |
